Measurements taken from PMC516023 (2004).

B1: HIV-1 Vpr, wild type [HIV-1] / GST-fused di-W peptide WWSFKSV (GST-B4) (parent complex)
chain 1: MEQAPEDQGPQREPHNEWTLELLEELKNEAVRHFPRIWLHGLGQHIYETYGDTWAGVEAIIRILQQLLFIHFRIGCRHSRIGVTRQRRARNGASRS
chain 2: WWSFKSV

Variants of: B1
Assay: GST pull-down, autoradiography scanning; parent: 100; read off a plot

Variant	percent of parent
chain 1 F34I	~80%
chain 1 R62P	~4%
chain 1 A30F	~6%
chain 1 E21K	~7%
chain 1 R80A	~88%
chain 1 I63K	~80%
chain 1 L23F	~10%
chain 1 R87A, chain 1 R88A	~71%
chain 1 E25K	~86%
